Data as given in patent publication EP0956864A1, “TISSUE FIBROSIS INHIBITOR” (KYOWA HAKKO KOGYO CO., LTD., priority 1996, dated 1998).

Tests used:
[1] = Arginase activity assay (Garganta and Bond); format: biochemical; settings: purified preparation
Procedure: The elution of protein was monitored by measuring absorbance at 280 nm. Effluents were collected by a fraction collector and each fraction was estimated according to the method of measuring arginase activity as reported by Garganta and Bond: Analytical Biochemistry, 154, 388 (1986).
The SP-Sepharose human arginase fraction contained 1360 mg of proteins and the purity of human arginase was 90% or higher. […] The amount of proteins herein means the value calculated as bovine serum albumin using BIO-RAD protein assay kit.

[2] = Arginine concentration in blood (plasma) after administration to rats; format: in vivo, SD rats; settings: 0.5 ml of 200 µg/ml per rat into penis veniplex; 1, 3, 6, 24 hours and 1 to 14 days
Procedure: 2. Kinetics of PEG modified rat arginase in rat blood
Male SD rats (body weight of 220 to 240 G) were purchased from Nippon SLC and tested after about 1 week breeding. […] After inhalation anesthesia with diethyl ether, each sample was administered to penis veniplex at a dose of 0.5 ml per rat by means of a disposable plastic syringe (Terumo).
To determine the change with the passage of time, the blood was taken from the same individual at 1, 3, 6 and 24 hours or 1, 3, 7, 10 and 14 days. The animals were bled from the tail veins at 0.3 ml per animal by a method that causes a minimum effect on the animals. Each rat was fixed in a retaining trap (Natsume Seisakusho) so that it could move only the tail freely, and a disposable injection needle (Terumo, 23x1" ) was cut at the part connecting to the syringe and inserted into the tail vein. The vein blood dripped from the cut end was received in a sample tube (Eppendorph, volume of 1.5 ml) containing 10 µl of 5% EDTA.2K solution as an anticoagulant. After slightly shaking to confirm the absence of coagulation, the blood was centrifuged at 3,000 rpm for 10 minutes to yield plasma. The plasma sample was freezed and stored at -80°C until analysis. Prior to use, the sample was thawed and centrifuged at 3,000 rpm for 10 minutes to remove insoluble matters. […]

[3] = system: Rat2 cells; assay: Cell growth inhibiting activity in rat fibroblast cell line Rat2 (MTT method); format: cell-based; settings: 1.5 µg/ml; compared with LP6 to LP10
Procedure: The assay of growth inhibiting activity using the rat fetal fibroblast as above mentioned has an insufficient sensitivity and needs complicated operations; therefore, a higher sensitive assay of the growth inhibiting activity using rat fibroblasts, Rat2 cells, was established. This assay will be described hereinbelow.
Rat fibroblast cell line Rat2 (ATCC CRL-1764) was cultured in Eagle MEM medium containing 10% bovine serum (Science, 130, 432 (1959)) in the presence of 5% carbon dioxide at 37°C.
The number of Rat2 cells can be measured by any method which can be used for quantitative determination of cell growth. […] Procedures for quantitatively determining the number of cells by the MTT method and assaying the cell growth inhibiting activity of a sample will be described herein. […]
Thereafter, PBS containing 1 to 10 mg/ml, preferably 5 mg/ml, of MTT reagent is added at 1 to 100 µl/well, preferably 10 µl/well, and further incubated for 1 to 8 hours, preferably 4 hours. […] The absorbance of the dissolved formazan dye at 540 nm is measured to thereby quantitatively determine the number of cells. […]
The number of Rat2 cells may be measured by any method which can be used to determine cell growth in a quantitative manner. The number of cells was quantitatively determined by the MTT method herein to measure the cell growth inhibiting activity in the liver perfusates LP6 to LP10. […]

B1: PEG modified rat arginase: recombinant rat arginase modified with methoxy polyethylene glycol propionic acid N-hydroxysuccinimide ester, average molecular weight about 5,000 (conjugate, UniProt P07824 1-323, looked up)
Arginase-1: MSSKPKPIEIIGAPFSKGQPRGGVEKGPAALRKAGLVEKLKETEYNVRDHGDLAFVDVPNDSPFQIVKNPRSVGKANEQLAAVVAETQKNGTISVVLGGDHSMAIGSISGHARVHPDLCVIWVDAHTDINTPLTTSSGNLHGQPVAFLLKELKGKFPDVPGFSWVTPCISAKDIVYIGLRDVDPGEHYIIKTLGIKYFSMTEVDKLGIGKVMEETFSYLLGRKKRPIHLSFDVDGLDPVFTPATGTPVVGGLSYREGLYITEEIYKTGLLSGLDIMEVNPTLGKTPEEVTRTVNTAVALTLSCFGTKREGNHKPETDYLKPPK
modifications: methoxy PEG 5000 conjugated
arginase activity [1]: 2358 U/ml | arginine concentration in blood [2]: Sustained inhibiting effects | rat fibroblast Rat-2 growth inhibiting activity [3]: identical with that obtained when 1.25% LP6 to LP10 were added
